{"source": "patent US20120022129", "target": "flag-tagged WT HDAC2 (1-488)", "sequence (chain, as listed by the source)": "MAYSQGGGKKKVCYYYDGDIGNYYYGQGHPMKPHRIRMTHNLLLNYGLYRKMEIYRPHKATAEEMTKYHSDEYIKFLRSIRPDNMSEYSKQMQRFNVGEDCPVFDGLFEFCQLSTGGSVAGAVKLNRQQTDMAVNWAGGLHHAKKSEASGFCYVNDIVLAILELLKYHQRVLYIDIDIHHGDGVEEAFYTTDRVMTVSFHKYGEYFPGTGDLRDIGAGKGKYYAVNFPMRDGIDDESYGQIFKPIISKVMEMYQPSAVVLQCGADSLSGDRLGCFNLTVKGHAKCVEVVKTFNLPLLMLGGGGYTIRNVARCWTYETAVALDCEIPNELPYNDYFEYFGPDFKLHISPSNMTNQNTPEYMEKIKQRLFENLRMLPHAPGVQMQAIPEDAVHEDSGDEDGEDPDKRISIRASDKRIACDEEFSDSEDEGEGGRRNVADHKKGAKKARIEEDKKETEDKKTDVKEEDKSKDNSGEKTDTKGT", "data": [{"protein": "protein kinase CK2 catalytic subunit CK2α (protein) MSGPVPSRARVYTDVNTHRPREYWDYESHVVEWGNQDDYQLVRKLGRGKYSEVFEAINITNNEKVVVKILKPVKKKKIKREIKILENLRGGPNIITLADIVKDPVSRTPALVFEHVNNTDFKQLYQTLTDYDIRFYMYEILKALDYCHSMGIMHRDVKPHNVMIDHEHRKLRLIDWGLAEFYHPGQEYNVRVASRYFKGPELLVDYQMYDYSLDMWSLGCMLASMIFRKEPFFHGHDNYDQLVRIAKVLGTEDLYDYIDKYNIELDPRFNDILGRHSRKRWERFVHSENQHLVSPEALDFLDKLLRYDHQSRLTAREAMEHPYFYTVVKDQARMGSSSMPGGSTPVSSANMMSGISSVPTPSPLGPLAGSPVIAAANPLGMPVPAAAGAQQ", "values": [{"measurement": "HDAC2 serine phosphorylation (phospho-serine western blot of immunoprecipitated flag-tagged HDAC2)", "value": "HDAC2 phosphorylation seemed to correlate with the level of CK2α binding"}]}]}
